Test results as given in PMC10470521, “Structural basis of a bi-functional malonyl-CoA reductase (MCR) from the photosynthetic green non-sulfur bacterium Roseiflexus castenholzii” (mBio, 2023).

Columns and labels:
[1] = biological target: RfxMCR-C (Gly573-Val1229) (Roseiflexus castenholzii DSM 13941) (UniProt A7NN59); assay: crystal structure; RfxMCR-C with NADP+ and MSA; 1.6 M sodium formate, 0.1 M Bis-tris propane pH 7.0, 16°C; P6(5)22, dimer by crystal packing; 2.3 Å
RfxMCR-C = biological target: T1, RfxMCR-C (Roseiflexus castenholzii, UniProt A7NN59); assay: X-ray crystal structure, […] Å; assay type: binding; conditions: ternary complex with MSA; SDR3 / ED interface
T1 construct: gene Rcas_2929; C-terminal fragment Gly573-Val1229 (SDR3-ED-SDR4), N-terminal His6 tag (pET28a), E. coli BL21(DE3)

[2] = biological target: the molecule itself; assay: SEC; gel filtration on HiLoad 16/600 Superdex 200PG; 25 mM Tris-HCl pH 8.0, 150 mM NaCl
purified protein = substrate: CC(C)(COP(=O)(O)OP(=O)(O)OC[C@H]1O[C@@H](n2cnc3c(N)ncnc32)[C@H](O)[C@@H]1OP(=O)(O)O)[C@@H](O)C(=O)NCCC(=O)NCCSC(=O)CC(=O)O; assay: purified protein; assay type: biochemical, Roseiflexus castenholzii; conditions: 0.4 mM NADPH, 5 mM MgCl2, 100 mM Tris-HCl pH 8.0, 150 mM NaCl, 50°C, apparent, overall two-step reduction

RfxMCR-C (Gly573-Val1229) (from UniProt A7NN59 573-1229) (domain or fragment)
stoichiometry N [1]: 2

NC(=O)c1ccc[n+]([C@@H]2O[C@H](COP(=O)(O)OP(=O)(O)OC[C@H]3O[C@@H](n4cnc5c(N)ncnc54)[C@H](OP(=O)(O)O)[C@@H]3O)[C@@H](O)[C@H]2O)c1 [NADP^+]
X-ray crystal structure, 2.3 Å (RfxMCR-C): a cofactor NADP^+ and intermediate MSA were resolved at the interface between the SDR3

B1: full-length malonyl-CoA reductase from Roseiflexus castenholzii (RfxMCR) (enzyme, Roseiflexus castenholzii DSM 13941, UniProt A7NN59 1-1229, looked up)
chain: MSTVRRLEGKVALITGGAGNIGEVITRRFLAEGATVVITGRNAEKLAVYRRRLIDEERVAPERVVALRMDGSDIAQVRAGVAQIVHGGTDVPIPLHRIDILVNNAGSAGPRRRLVDIPLEPSEVQPPDSETLAQAVGNLVGITWNLTRAAAPHMPSGSSVINISTIFSRTDYYGRIAYVAPKAALNALSDGLARELGVRGIRVNTIYPGPIESERIYTMFQAMDALKGQPEGDTASGFLRMMRLSRIDQNGEVVKRFPSPVDVANTAVFLASDESAAFTGHAFEVTHGMEVPTESRTTFVSRPGLRSVDATGKVILICAGDQVDDAVALADTLRSCRATVVIGFRDPRALEKASVLLREPRHALAADMYGRPTMTAEARLVRLDPLDPRAAAQTLEQIHAELGAIHHAVVLPGQSRHAPSASLIEVDDQVVERFLHQELVGTIALARELARFWEEYPSGSSMHRVLFVSNPDDQQGNQYSHILRAAVEQLVRVWRHESEYDSVNPAHQQEGQSSAAVWANQLIRYVNNEMANLDFTCAWVAKLLGSDRRIAEINLYLPEEIVGTIGVHNPGFGWAESLFGLHMGKVALITGGSAGIGGQIGRLLALSGAHVMLAARNADQLEQMRASIVREVRDASYPDAESRVAIFPGSDVSDIDGLERLVNHTVRVFGKVDYLINNAGIAGAEEMVIDMPVDAWRHTLRANLISNYALLRRLAPQMKAAGGAYVLNVSSYFGGEKYVAIPYPNRSDYAVSKAGQRAMVESLARFLGPEIQINAIAPGPVEGERLKGAGSRPGLFMRRARLILENKRLNEVFAALLAARHEGATIADLLPDLFANDIQSIANSAAMPAPLRRLATMLRETSDAGGSAQSYLMNATIARKLLNRLENGGYITLHDRRALTVEPPEPFFTEAQIEREAIKVRDGILGMLHLQRMPTEFDVALATVFYLADRNVTGETFHPSGGLRFERTVTEGELFGKPGQQRLERLKGSVVYLIGEHLRQHLVLLARTFLDEIHVARVVLLTETTQAATDLAAELSDYEAAGRFVVIPTCGDIEGGIDRAMAEYGRPGPVISTPFRPLPDRALSARNGDWSSVLTTAEFEELVEQQITHHFRVARKAGLIEGANVTLVTPPTSARSTSEEFALANFVKTTLHALTATAGAESERTVPHVPVNQVDLTRRARSEEPRTPSEEEEELQRFVNAVLLTSAPLPTPLESRYRARIYRGNAITV
notes: malonyl-CoA reductase (MCR) of Roseiflexus castenholzii DSM 13941, gene Rcas_2929, full length Met1-Val1229; Cloned into pET20b at XhoI and NdeI; also called full-length RfxMCR; wild-type RfxMCR
stoichiometry N [2]: 2
Km (purified protein): 380 ± 80 µM
kcat (purified protein): 5.65 ± 0.57 s⁻¹
kcat/Km (purified protein): 14800 ± 1540 M⁻¹ s⁻¹

B2: RfxMCR single mutant E576A (enzyme, Roseiflexus castenholzii DSM 13941)
chain: MSTVRRLEGKVALITGGAGNIGEVITRRFLAEGATVVITGRNAEKLAVYRRRLIDEERVAPERVVALRMDGSDIAQVRAGVAQIVHGGTDVPIPLHRIDILVNNAGSAGPRRRLVDIPLEPSEVQPPDSETLAQAVGNLVGITWNLTRAAAPHMPSGSSVINISTIFSRTDYYGRIAYVAPKAALNALSDGLARELGVRGIRVNTIYPGPIESERIYTMFQAMDALKGQPEGDTASGFLRMMRLSRIDQNGEVVKRFPSPVDVANTAVFLASDESAAFTGHAFEVTHGMEVPTESRTTFVSRPGLRSVDATGKVILICAGDQVDDAVALADTLRSCRATVVIGFRDPRALEKASVLLREPRHALAADMYGRPTMTAEARLVRLDPLDPRAAAQTLEQIHAELGAIHHAVVLPGQSRHAPSASLIEVDDQVVERFLHQELVGTIALARELARFWEEYPSGSSMHRVLFVSNPDDQQGNQYSHILRAAVEQLVRVWRHESEYDSVNPAHQQEGQSSAAVWANQLIRYVNNEMANLDFTCAWVAKLLGSDRRIAEINLYLPEEIVGTIGVHNPGFGWAASLFGLHMGKVALITGGSAGIGGQIGRLLALSGAHVMLAARNADQLEQMRASIVREVRDASYPDAESRVAIFPGSDVSDIDGLERLVNHTVRVFGKVDYLINNAGIAGAEEMVIDMPVDAWRHTLRANLISNYALLRRLAPQMKAAGGAYVLNVSSYFGGEKYVAIPYPNRSDYAVSKAGQRAMVESLARFLGPEIQINAIAPGPVEGERLKGAGSRPGLFMRRARLILENKRLNEVFAALLAARHEGATIADLLPDLFANDIQSIANSAAMPAPLRRLATMLRETSDAGGSAQSYLMNATIARKLLNRLENGGYITLHDRRALTVEPPEPFFTEAQIEREAIKVRDGILGMLHLQRMPTEFDVALATVFYLADRNVTGETFHPSGGLRFERTVTEGELFGKPGQQRLERLKGSVVYLIGEHLRQHLVLLARTFLDEIHVARVVLLTETTQAATDLAAELSDYEAAGRFVVIPTCGDIEGGIDRAMAEYGRPGPVISTPFRPLPDRALSARNGDWSSVLTTAEFEELVEQQITHHFRVARKAGLIEGANVTLVTPPTSARSTSEEFALANFVKTTLHALTATAGAESERTVPHVPVNQVDLTRRARSEEPRTPSEEEEELQRFVNAVLLTSAPLPTPLESRYRARIYRGNAITV
notes: malonyl-CoA reductase (MCR) of Roseiflexus castenholzii DSM 13941, gene Rcas_2929, with E576A; source: E. coli BL21(DE3), purified following the same procedure as the wild-type protein
stoichiometry N [2]: 2

B3: RfxMCR triple mutant W574A E576A F579A (enzyme, Roseiflexus castenholzii DSM 13941)
chain: MSTVRRLEGKVALITGGAGNIGEVITRRFLAEGATVVITGRNAEKLAVYRRRLIDEERVAPERVVALRMDGSDIAQVRAGVAQIVHGGTDVPIPLHRIDILVNNAGSAGPRRRLVDIPLEPSEVQPPDSETLAQAVGNLVGITWNLTRAAAPHMPSGSSVINISTIFSRTDYYGRIAYVAPKAALNALSDGLARELGVRGIRVNTIYPGPIESERIYTMFQAMDALKGQPEGDTASGFLRMMRLSRIDQNGEVVKRFPSPVDVANTAVFLASDESAAFTGHAFEVTHGMEVPTESRTTFVSRPGLRSVDATGKVILICAGDQVDDAVALADTLRSCRATVVIGFRDPRALEKASVLLREPRHALAADMYGRPTMTAEARLVRLDPLDPRAAAQTLEQIHAELGAIHHAVVLPGQSRHAPSASLIEVDDQVVERFLHQELVGTIALARELARFWEEYPSGSSMHRVLFVSNPDDQQGNQYSHILRAAVEQLVRVWRHESEYDSVNPAHQQEGQSSAAVWANQLIRYVNNEMANLDFTCAWVAKLLGSDRRIAEINLYLPEEIVGTIGVHNPGFGAAASLAGLHMGKVALITGGSAGIGGQIGRLLALSGAHVMLAARNADQLEQMRASIVREVRDASYPDAESRVAIFPGSDVSDIDGLERLVNHTVRVFGKVDYLINNAGIAGAEEMVIDMPVDAWRHTLRANLISNYALLRRLAPQMKAAGGAYVLNVSSYFGGEKYVAIPYPNRSDYAVSKAGQRAMVESLARFLGPEIQINAIAPGPVEGERLKGAGSRPGLFMRRARLILENKRLNEVFAALLAARHEGATIADLLPDLFANDIQSIANSAAMPAPLRRLATMLRETSDAGGSAQSYLMNATIARKLLNRLENGGYITLHDRRALTVEPPEPFFTEAQIEREAIKVRDGILGMLHLQRMPTEFDVALATVFYLADRNVTGETFHPSGGLRFERTVTEGELFGKPGQQRLERLKGSVVYLIGEHLRQHLVLLARTFLDEIHVARVVLLTETTQAATDLAAELSDYEAAGRFVVIPTCGDIEGGIDRAMAEYGRPGPVISTPFRPLPDRALSARNGDWSSVLTTAEFEELVEQQITHHFRVARKAGLIEGANVTLVTPPTSARSTSEEFALANFVKTTLHALTATAGAESERTVPHVPVNQVDLTRRARSEEPRTPSEEEEELQRFVNAVLLTSAPLPTPLESRYRARIYRGNAITV
notes: malonyl-CoA reductase (MCR) of Roseiflexus castenholzii DSM 13941, gene Rcas_2929, with W574A, E576A and F579A; source: E. coli BL21(DE3), purified following the same procedure as the wild-type protein
stoichiometry N [2]: 2

B4: RfxMCR double mutant W574A E576A (enzyme, Roseiflexus castenholzii DSM 13941)
chain: MSTVRRLEGKVALITGGAGNIGEVITRRFLAEGATVVITGRNAEKLAVYRRRLIDEERVAPERVVALRMDGSDIAQVRAGVAQIVHGGTDVPIPLHRIDILVNNAGSAGPRRRLVDIPLEPSEVQPPDSETLAQAVGNLVGITWNLTRAAAPHMPSGSSVINISTIFSRTDYYGRIAYVAPKAALNALSDGLARELGVRGIRVNTIYPGPIESERIYTMFQAMDALKGQPEGDTASGFLRMMRLSRIDQNGEVVKRFPSPVDVANTAVFLASDESAAFTGHAFEVTHGMEVPTESRTTFVSRPGLRSVDATGKVILICAGDQVDDAVALADTLRSCRATVVIGFRDPRALEKASVLLREPRHALAADMYGRPTMTAEARLVRLDPLDPRAAAQTLEQIHAELGAIHHAVVLPGQSRHAPSASLIEVDDQVVERFLHQELVGTIALARELARFWEEYPSGSSMHRVLFVSNPDDQQGNQYSHILRAAVEQLVRVWRHESEYDSVNPAHQQEGQSSAAVWANQLIRYVNNEMANLDFTCAWVAKLLGSDRRIAEINLYLPEEIVGTIGVHNPGFGAAASLFGLHMGKVALITGGSAGIGGQIGRLLALSGAHVMLAARNADQLEQMRASIVREVRDASYPDAESRVAIFPGSDVSDIDGLERLVNHTVRVFGKVDYLINNAGIAGAEEMVIDMPVDAWRHTLRANLISNYALLRRLAPQMKAAGGAYVLNVSSYFGGEKYVAIPYPNRSDYAVSKAGQRAMVESLARFLGPEIQINAIAPGPVEGERLKGAGSRPGLFMRRARLILENKRLNEVFAALLAARHEGATIADLLPDLFANDIQSIANSAAMPAPLRRLATMLRETSDAGGSAQSYLMNATIARKLLNRLENGGYITLHDRRALTVEPPEPFFTEAQIEREAIKVRDGILGMLHLQRMPTEFDVALATVFYLADRNVTGETFHPSGGLRFERTVTEGELFGKPGQQRLERLKGSVVYLIGEHLRQHLVLLARTFLDEIHVARVVLLTETTQAATDLAAELSDYEAAGRFVVIPTCGDIEGGIDRAMAEYGRPGPVISTPFRPLPDRALSARNGDWSSVLTTAEFEELVEQQITHHFRVARKAGLIEGANVTLVTPPTSARSTSEEFALANFVKTTLHALTATAGAESERTVPHVPVNQVDLTRRARSEEPRTPSEEEEELQRFVNAVLLTSAPLPTPLESRYRARIYRGNAITV
notes: malonyl-CoA reductase (MCR) of Roseiflexus castenholzii DSM 13941, gene Rcas_2929, with W574A and E576A; source: E. coli BL21(DE3), purified following the same procedure as the wild-type protein
stoichiometry N [2]: 2
